Test results: paper PMC8476121, “Structural insights into the activation of human calcium-sensing receptor” (eLife, 2021)

B1: Human calcium-sensing receptor CaSR (1-870) with C-terminal Flag tag (receptor, UniProt P41180-1 20-870, looked up)
chain: YGPDQRAQKKGDIILGGLFPIHFGVAAKDQDLKSRPESVECIRYNFRGFRWLQAMIFAIEEINSSPALLPNLTLGYRIFDTCNTVSKALEATLSFVAQNKIDSLNLDEFCNCSEHIPSTIAVVGATGSGVSTAVANLLGLFYIPQVSYASSSRLLSNKNQFKSFLRTIPNDEHQATAMADIIEYFRWNWVGTIAADDDYGRPGIEKFREEAEERDICIDFSELISQYSDEEEIQHVVEVIQNSTAKVIVVFSSGPDLEPLIKEIVRRNITGKIWLASEAWASSSLIAMPQYFHVVGGTIGFALKAGQIPGFREFLKKVHPRKSVHNGFAKEFWEETFNCHLQEGAKGPLPVDTFLRGHEESGDRFSNSSTAFRPLCTGDENISSVETPYIDYTHLRISYNVYLAVYSIAHALQDIYTCLPGRGLFTNGSCADIKKVEAWQVLKHLRHLNFTNNMGEQVTFDECGDLVGNYSIINWHLSPEDGSIVFKEVGYYNVYAKKGERLFINEEKILWSGFSREVPFSNCSRDCLAGTRKGIIEGEPTCCFECVECPDGEYSDETDASACNKCPDDFWSNENHTSCIAKEIEFLSWTEPFGIALTLFAVLGIFLTAFVLGVFIKFRNTPIVKATNRELSYLLLFSLLCCFSSSLFFIGEPQDWTCRLRQPAFGISFVLCISCILVKTNRVLLVFEAKIPTSFHRKWWGLNLQFLLVFLCTFMQIVICVIWLYTAPPSSYRNQELEDEIIFITCHEGSLMALGFLIGYTCLLAAICFFFAFKSRKLPENFNEAKFITFSMLIFFIVWISFIPAYASTYGKFVSAVEVIAILAASFGLLACIFFNKIYIILFKPSRNTIE
notes: signal peptide in the construct; human calcium-sensing receptor (CaSR), residues 1-870, cDNA NM_000388.4; Flag printed as DYKDDDD; Cloned into a modified pEG BacMam vector; also called full-length CaSR; hCaSR; source: HEK293 GnTI- cells infected with baculovirus (BacMam), purified (anti-Flag M2, Mono Q, Superose 6) in GDN/CHS
B2: NB-2D11 (camel nanobody) (VHH)
VHH: QVQLQESGGGSVQAGGSLRLSCAASGFPISTYDMGWFRQAPGKEREGVVGITDSFSIKYEDSVKGRFTISRDNAKNALYLQMNSLKPEDTGMYYCAAGDARWSLLLRAEQYNYWGQGTQVTVSS
notes: Cloned in pMECS with a PelB signal peptide; HA tag followed by 6x histidine tag at the C-terminus; Isolated from a phage display library of camels immunised with human CaSR; also called NB-D211; source: E. coli TOP10F' periplasm, purified (Ni-NTA, Superdex 75)

Tests used:
[1] = target: the molecule itself; test: cryo-EM structure; inactive state: CaSR in GDN/CHS micelles with NPS-2143 (NAM), 1 mM CaCl2 and a 1.2 molar excess of NB-2D11
[2] = target: T1, CaSR ECD (extracellular domain of human calcium-sensing receptor) (Homo sapiens, UniProt P41180); test: SPR; Biacore T200; CaSR ECD coupled to the chip by amino-carboxyl coupling; nanobody flowed at a series of concentrations (30 ul/min, association 90 s, dissociation 220 s); 25 C; 20 mM HEPES pH 7.4, 150 mM NaCl, 0.05% Tween 20; details: both partners purified
T1 construct: human calcium-sensing receptor (CaSR), extracellular domain (VFT domain and cysteine rich domain); crystal structures of CaSR ECD (PDB 5K5T, 5K5S; Geng et al., 2016) are cited but not tied to this construct
T1 sequence (P41180 whole entry, looked up, the tested form may be a part): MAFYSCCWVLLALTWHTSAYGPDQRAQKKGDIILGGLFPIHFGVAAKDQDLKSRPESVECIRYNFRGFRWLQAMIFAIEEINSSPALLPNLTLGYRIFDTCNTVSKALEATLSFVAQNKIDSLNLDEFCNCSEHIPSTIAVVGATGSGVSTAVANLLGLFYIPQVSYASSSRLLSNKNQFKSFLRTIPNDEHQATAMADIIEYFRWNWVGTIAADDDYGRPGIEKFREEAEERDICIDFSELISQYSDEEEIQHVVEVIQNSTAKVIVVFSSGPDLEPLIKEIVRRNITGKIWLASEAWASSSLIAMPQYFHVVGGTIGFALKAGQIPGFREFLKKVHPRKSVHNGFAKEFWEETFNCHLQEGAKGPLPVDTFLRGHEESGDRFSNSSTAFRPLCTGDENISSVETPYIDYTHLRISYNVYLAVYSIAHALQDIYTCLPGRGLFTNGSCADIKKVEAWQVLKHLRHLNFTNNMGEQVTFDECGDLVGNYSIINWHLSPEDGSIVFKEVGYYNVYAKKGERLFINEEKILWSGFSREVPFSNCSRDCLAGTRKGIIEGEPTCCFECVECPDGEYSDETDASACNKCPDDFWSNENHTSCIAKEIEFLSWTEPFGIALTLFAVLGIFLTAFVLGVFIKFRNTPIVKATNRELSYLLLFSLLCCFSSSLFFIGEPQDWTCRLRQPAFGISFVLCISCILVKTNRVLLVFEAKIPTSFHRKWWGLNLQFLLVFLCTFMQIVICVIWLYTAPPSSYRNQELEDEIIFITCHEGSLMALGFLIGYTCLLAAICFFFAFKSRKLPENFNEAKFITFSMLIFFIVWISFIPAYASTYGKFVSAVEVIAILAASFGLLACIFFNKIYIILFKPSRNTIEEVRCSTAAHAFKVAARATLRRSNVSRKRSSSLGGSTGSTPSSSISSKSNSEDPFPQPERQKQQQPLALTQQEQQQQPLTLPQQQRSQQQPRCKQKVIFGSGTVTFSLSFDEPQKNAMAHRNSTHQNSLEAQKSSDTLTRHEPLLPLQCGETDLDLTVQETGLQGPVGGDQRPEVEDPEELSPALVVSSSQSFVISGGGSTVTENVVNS

Binder	binding result [1]	Kd [2]
B1	binds	–
B2	–	0.24 nM
